In the supplement of paper PMC9942255:
“And” between values parts separate entries of the source, which are not always exact repeats. Equal values may be shown once.

Tested on: Bacillus subtilis DB104 (SP-AmyQ fusion secretion)
Experiment: AmyQ secretion efficiency, weighted average sort bin (1 = best secretion, 10 = worst) (bin number (weighted average, 1-10)); higher = lower secretion efficiency
In short: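 B. subtilis DB104 library expressing mature AmyQ fused to designed signal peptides (amyE-integrated) was encapsulated at about 0.3 cells per ~65 nL alginate bead with fluorescein-starch, grown about 13 h at room temperature and nile red stained. Occupied beads were sorted by large-particle flow cytometry into 10 equally populated bins by green/red fluorescence ratio, and each bin's amplicons were Illumina-sequenced. Secretion score is the read-frequency-weighted average bin number, normalised to beads per bin, excluding low-abundance sequences.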

Sequence | AmyQ secretion efficiency
MKKTTTKYFMFGLVMGFSQFQPSTVFAADK | 3.56
MKKWMASQKKSTQVLLCLMVPQQIQGASS | 7.24
MKLAKRVSALTPSTTLAIISTGSAKAKEL | 7.54
MRKKRVITCVMAASLTLGSLLPAGYASAAPS | 2.5
MKRKQQKSLAISALSLGLLVSAPTASFAAES | 3.07
MTKLKMLSMGKRRTASLFIFSSQALAVQY | 7.8
MKLKKRVSMFLVALTMCGGLFVTVIIVAKAVKT | 6.35
MKRTWNVCLIALLMVLLVAIFVTSPFHAEAKKP | 2.11
MLKKKKTQYQILVGSTLGAFSFSSDASAKHV | 5.99
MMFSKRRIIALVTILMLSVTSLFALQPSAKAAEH | 1.68
MAIIIAIIAAVIVIAALITFEEDERNASPG | 5.02
MMLAKRVSALTPSTTLAITAKAKEL | 7.47
MTMLRKIIGWILLLCIIPLFAFTVIASFKEV | 6.97
MTMLRKIIGWILLLCIIPLFAFTVIASRKEV | 6.1
MKKCLLFLTTIALILSLSTNGFAKNT | 6.12
MGLGKKLSVAVAASFMSLSISLPGVQSAEG | 3.87
MKIRKILLSSALSFGMLISAVPALAAKK | 1.84
MKKKQVMLALTAAAGLGLTALHSAPATKAAPL | 3.15
MRHKIITFILAVVVIIIIGNMIGGGGGSEATSH | 5.06
MRKSLITLGLASVIGTSSFLIPFTSKTLSAETL | 4.7
MKRLCLWFTVFSLFLVLLPGKALGAVD | 3.84
MKKSQYFIVFICFFVLFSVHPIAAANADS | 4.12
MFNTLFSVCFLAALIMAFTLPNSVYAQKP | 4.02
MKMKSGMEQAVSVLLLLSRLPVQASNTSE | 5.73
MKRRKKKVLTGSVLSLGLLVSASPAFATSP | 1.34
MKKIMSAFVGMVLLTIFCVSTLTFSPQASAAYD | 4.76

Sequence | AmyQ secretion efficiency
MKKCLLFLTTIALILSLSTTAFAKNT | 1.16
MNSMTIWTIILGALLVCCIAVAYTLTKSQAGASSS | 6.92
MKKRLIAPMLLSAASLAFFAMSGSGAQAAAY | 3.78
MFKFKKNFLFLVGLSAALMSISLFSATASAAST | 1.42
MPRKKKQKYRCLAVTLVFGSMSFPTLTNSGGFKE | 6.94
MGLGKKLSVAVAASFMSLSISLPGAVGPGFPTFPSVQAAEG | 1.21
MKRMIRTLPLLIVCLAFSSFSASARAASE | 2.17
MNLRKTYGSSALSLGMLVSAAPVLATSS | 6.93
MKLWMRKTLVVLFTIVTFGLVSPPAALMVDKP | 2.11
MKKRWRKTSQAAVLLLMVPKVSLADAA | 7.38
MKKWMASTSFSMGLFLAAAVLLCLMVPQQIQGASS | 5.01
MKKWLIIAVSLAIAIVLFMYTKGEKKAAGM | 5.84
MKKSQYFIVFICFFVLFSVHPIAAAGADS | 3.85
MVKKWYYQSKSSLSVLSTFTYSASAVGV | 5.88
MLKKKWMTGGTKRCLAAGGFSYNAFATEN | 7.54
MKSKWMSGLLLVAVGFSFRKKKKKVHAGET | 7.2
MLCVMMLLFSAIASFPVSAQYKDQ | 6.57
MNFKKTVVSALSISALALEPSGVASAHEI | 2.95
MKRKSCKLVVSVTLFFSFLTIGPLAHAQNS | 1.46
MRSYIKVLTMCFLGLILFVPTALLDNS | 5.28
MKRIRIPMTLALGAALTIAPLSFRSAEEN | 7.87
MTMLRKIIGWILLLCIIPLFAFTVIASGAED | 6.01
MKKAFILSAAAAVGLFTFGGVQQASGKEL | 3.67
MFSIGSIMACLILFSFTITTFINTETISAFSN | 5.65
MKKSQYFIVFICFFVLFSVHPIAAAFADS | 5.18
MIVIRKRKISIIVFLSVIQPQPS | 5.82

Sequence | AmyQ secretion efficiency
MKLSVKIAGVLTVAAAAMTAKMYCTAKGN | 7.19
MKKRKRRNFKRFIAAFLVLALMISLVPADVLGKST | 3.14
MRNLTKFLLLLAFLCMAAQMVFVTHASAEES | 3.58
MRKKLKWLSFLLGFIILLFLFKYQSSNNDS | 6.36
MKQGRTFLTSFMLLAMTGQTALAKDV | 4.71
MKLSVKRGTTLTVAAAAMTAKMYATAKGN | 7.06
MPIKKKVMMCLAVMLVFLMMSFPTLTNSGGFKE | 3.23
MKLKKRVSMTSKSSGSCRSLFVTPAKAVKT | 7.23
MFKKHMNNFTISLLIIFLLASAVLAKPIEAHTV | 3.28
MKVPKTMLLSTAAGLLLSLTATSVSAKRK | 5.92
MTMLRKIIGWILLLCIIKKKAFTVIASGKEV | 7.58
MTKVMLATALFLGLTPAGANAADL | 5.8
MLKKKWMVKRLAGCLAAGGFSYNAFATEN | 7.03
MRMLWRSLALCGLALTLAPCFVVTPASAQAAEP | 2.23
MKRITINIITMFIAAAVIFLVVFTSSGTAEAAEK | 2.77
MGLGKKLSVAVAASFMSLSISLPGVQKAEG | 3.62
MSSKAWFLPLVCVLLISGWLAPAASASAQTT | 1.72
MRPVFPLILSAVLFLSCFFGARQTEASRSKR | 2.45
MKKKKKRVGLLAGCLAAGGFSYNAFATEN | 6.9
MAIIIAIIAAVIVIAALITFNVRNMSPG | 7.67
MKKRKRRNFKRFIAAFLVLALMISLVPADALAKST | 1.92
MKKWIYVVLVLSIAGIGGFSVHNASS | 5.06
MRPVFPLILSAVLFLSCFTGARQTEASASKR | 3.07
MSSTITFVLTMCFLGLILFVPTALADNS | 2.16
MKKRLIAPMLLSAASLAFFAMFIIGSTAQAAAY | 4.67
MKVPKTMLLSTAAGLLLSLTATSFSAHYV | 6.3

Sequence | AmyQ secretion efficiency
MKKIMSAFVGMVLLTIFCFSPQASAAYD | 4.89 and 4.8
MKRIRIPMTLALGAALTIAPLSFASAATD | 2.9
MKKRLIAPMLLSAASLAFFAMSGSAQSAAY | 5.28
MSPVFPLILSAVLFLSCFFGARQTEASASKR | 2.21
MRSKKTWISLLFALTLIFTMAFSNMSAQAAGK | 3.25
MRKKRVRKCKKAASLTLGSLLPAGYASAKED | 7.62
MKVCQKSIVRFRKRRIIGTFVISVPFMANAQSD | 7.62
MKRIRIPMTLALGAALTIAPLSFESAEEN | 5.54
MKSKGSIMACLILFSFTITTFINTETESAFSN | 7.01
MRIFKKAVFVIMISFLIATVNVNTAHAKKR | 2.09
MKKIWIGMLAAAMVPKVSLADAA | 5.25
MIKVLMAFIICLSLILSVLAAPPSGAKAESV | 1.52
MKKRLIQVMIMFTLLLRRKRRRRADAADS | 8.45
MLKKKWMVGLLAGCLAAGGFSYNAFLTEN | 6.4
MRMLWRSLALCGLALTLAPCMQAAEP | 1.94
MKRSISIFITCLLITLLTMGGMIASPASEAGT | 4.1
MNLNTILLSSALSLGMLVSAAPVLATSS | 1.5
MKVPKTMLLSTAAGLLLSLDEDSVSAHYV | 6.39
MMKKLAAGLTASAIVGTTLVVTPAEAATI | 2.13
MKKKQVMLALTAAAGLGLTALGSAPAAKAAPL | 2.2
MKRMIVRMTLPLLIVCLAFSSFSASARCASE | 4.35
MMKKLFHSTLIVLLFFSFFGVQPIHAATR | 2.55
MKKVLMAFIICLSLILSVLAAPPSGAKVESV | 4.98
MSKWLIIAVSLAIAIVLFMYTKGEAKAAGM | 7.49
MLKKIALTLCPAIVGSLLFFTAPFSAHVS | 5.46
MLKKIALTLCPAIVGSLLFFTAPNSAHVS | 6.42

Sequence | AmyQ secretion efficiency
MMRIRIPMTLALGAALTIAPLSFASAEEN | 2.92
MKKQIITATTAVVLGSTLFAGAVSAQSI | 1.69
MKKRLIAPMLLSAASLAFFAMSGSAQTAAY | 7.42
MLKKIARRKCKKRVGSLLFFTAPASAHVS | 7.33
MRHKSITFILAVVVIIIIGNMIGGGGGSEATSK | 6.79
MKSRTIWTIILGALLVCSAASSCIAVAYTLTKSQAGASSS | 6.64
MKKWMITIAMLILAGIALFVFISPNKSHKT | 5.8
MKKKQVMLALTAAAGLGLTALAIVSSFVHSAPAAKAAPL | 5.73
MRSKKLWISLLFALTLIKKKAFSNMSAQAAGK | 8.69
MRKKRTIFAFLTGLMMFGTITAASASPD | 4.56
MNKLKRLSMLTVMIASVFIFSSHALAAQE | 1.11
MLKKKWMVGLLAGCLAAGGFSYNGSFVAFATEN | 3.96
MLTKRLLTIYIMLLGLIAWFPGALQAEEK | 2.66
MKRFSTAYLLLGILCSAAVFLIGAPSRALGAPK | 1.81
MRKTIFAFLTGLMMFGTITAASRSPD | 6.51
MKRLTLVCSIVFILFILFYDKDEASAKTA | 1.77
MTKKARKLPLVCVLLISGWLAPAASASAQTT | 1.96
MNSCSQLIVCSLAAILLLIPSVSFAADS | 4.9
MKKAFILSAAAAVGLFTFGGVQQMSAKEL | 2.71
MKKVMLATALFLGLTPAGANAASK | 2.96
MFMMSTNNFKRFIAAFLVLALMISLVPADVLAKST | 2.59
MKKLLAAGIIGLLTVSIASPSFLAEK | 5.65
